# From patent publication US20260217861
# Test system: mouse GPV with point mutation R476A in the thrombin cleavage site (Gp5^dThr platelets)
# Sequence (chain, as listed by the source R476A): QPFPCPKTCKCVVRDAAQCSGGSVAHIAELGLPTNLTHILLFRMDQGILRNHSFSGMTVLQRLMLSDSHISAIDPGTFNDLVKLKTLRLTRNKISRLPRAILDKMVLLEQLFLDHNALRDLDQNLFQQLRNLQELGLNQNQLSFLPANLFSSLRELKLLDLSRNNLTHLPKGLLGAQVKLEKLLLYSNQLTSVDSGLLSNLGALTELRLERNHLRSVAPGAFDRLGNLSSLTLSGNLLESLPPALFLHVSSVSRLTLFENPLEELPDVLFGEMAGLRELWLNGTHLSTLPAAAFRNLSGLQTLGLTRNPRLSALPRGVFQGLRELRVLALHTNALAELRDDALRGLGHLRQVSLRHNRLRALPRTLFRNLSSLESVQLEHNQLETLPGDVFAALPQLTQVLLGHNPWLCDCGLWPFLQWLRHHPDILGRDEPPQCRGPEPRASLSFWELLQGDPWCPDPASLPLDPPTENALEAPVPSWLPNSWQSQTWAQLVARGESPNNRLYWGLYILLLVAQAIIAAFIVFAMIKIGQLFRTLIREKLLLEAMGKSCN
substance,measurement,value
"human thrombin (Roche, Sigma-Aldrich #10602400001)","cleavage of GPV by thrombin (sGPV ELISA, flow cytometry)",GPV was completely resistant to cleavage by thrombin
